Measured values from PMC5041479.
Where two headings read alike, the source gives them in different places.

T1: Pif1p (yeast, UniProt P07271 40-859)
T1 sequence: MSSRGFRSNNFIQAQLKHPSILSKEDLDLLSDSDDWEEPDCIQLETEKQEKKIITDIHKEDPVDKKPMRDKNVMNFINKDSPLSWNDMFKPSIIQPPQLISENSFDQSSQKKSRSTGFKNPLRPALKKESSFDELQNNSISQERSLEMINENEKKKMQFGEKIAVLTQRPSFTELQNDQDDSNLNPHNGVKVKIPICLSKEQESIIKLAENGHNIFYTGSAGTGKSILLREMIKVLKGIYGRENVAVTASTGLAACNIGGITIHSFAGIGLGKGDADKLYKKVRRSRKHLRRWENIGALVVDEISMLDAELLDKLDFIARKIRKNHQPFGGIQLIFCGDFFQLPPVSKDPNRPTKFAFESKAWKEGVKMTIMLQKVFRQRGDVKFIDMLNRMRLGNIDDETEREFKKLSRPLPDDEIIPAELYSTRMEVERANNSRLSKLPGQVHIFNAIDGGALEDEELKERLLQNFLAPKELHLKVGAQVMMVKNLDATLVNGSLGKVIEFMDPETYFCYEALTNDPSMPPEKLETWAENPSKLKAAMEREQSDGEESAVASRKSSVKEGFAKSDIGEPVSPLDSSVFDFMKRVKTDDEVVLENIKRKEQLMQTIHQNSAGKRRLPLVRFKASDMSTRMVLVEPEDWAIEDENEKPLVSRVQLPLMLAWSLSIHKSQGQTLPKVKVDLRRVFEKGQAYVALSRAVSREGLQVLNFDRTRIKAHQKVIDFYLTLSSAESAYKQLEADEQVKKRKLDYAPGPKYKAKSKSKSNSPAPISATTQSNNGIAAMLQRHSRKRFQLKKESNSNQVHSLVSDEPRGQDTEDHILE

B1: FAM-T12 (ssDNA)
DNA: TTTTTTTTTTTT
B2: FAM-GR12 (ssDNA)
DNA: GTGTGTGTGGTG

Assays:
Pif1p [1] = target: T1, Pif1p; assay: fluorescence anisotropy
Pif1p [2] = target: T1, Pif1p; assay: fluorescence anisotropy; remark: listed apart in the source

Binder | Kd (Pif1p [1]) | Kd (Pif1p [2])
B1 | 25.2 nM | –
B2 | – | 8.7 nM
